Data from the nanobody polyreactivity screen of Harvey et al. (2022).

Assay: yeast display, Sf9 membrane polyspecificity reagent, FACS + sequencing; frameworks hold sequencing errors
How it was run: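 Sorting gates, low and high (top ~1%), were placed on anti-HA fluorescence to track expression and on streptavidin fluorescence to track reagent binding. A clone's polyreactivity label is taken from the gate it came out of. The reagent was 10% biotinylated, detergent-solubilized Sf9 membrane, applied for 1 hour at 4 °C to galactose-induced yeast display cells.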

Row | Sequence | polyreactivity (PSR sort gate)
1 | QVQLVESGGGLVQAGGSLRLSCAASGSSFSWNAMGWYSQAPGKERELVAAISKRGTSTYYADSVKGRFTISRDNAKKTVYLQMNSLKPEDTAVYYCAARRYYGVYYAFYYWGQGTQVTVSS | high polyreactivity
2 | QVQLVESGGGLVQAGGSLRLSCAASGSSFVRNGMGWYRQAPGKERELVASIRGSGSRTYYADSVKGRFTISRDNAKNTVYLQMNSLKPEDTAVYYCAAGYWRYYHYPPASGYWGQGTQVTVSS | high polyreactivity
3 | QVQLVESGGGLVQAGGSLRLSCAASGSSFWSNAMGWYRQAPGKEREFVAAINWSGDNTYYADSVKGRFTISRDNSKNKVYLKLISLKPEDTAVYYCIGVGDYPKYSGGFDYCGQGTQVTVSS | low polyreactivity
4 | QVQLVESGGGLVQAGGSLRLSCAASGSTCYSNAMGWYRQAPGNERELVAGISGSGGSTYYADSVKGRFTISRDNAKNTVYLHMNSLKPEDTAVYYCNARKTRSYFRFDSWGQGTQVTVSS | low polyreactivity
5 | QVQLVESGGGLVQAGGSLRLSCAASGSTDSNAMGWNRQAPGKEREMVAPISGTGSRTYYADSVKGRFTISRDNAKNTVYFQLNSLKTEDTAVYYCNKDVYGYSRTGPRGYDYWGQGTQVTVSS | high polyreactivity
6 | QVQLVESGGGLVQAGGSLRLSCAASGSTFAANAMGWYRPAPGKERELVAAITSSGGSTYYADSVKGRFTISRDNAKNTVYLQMNSLKPEDTAVYYCNKDIERYVRIYDSWGQGTQVTVSS | low polyreactivity
7 | QVQLVESGGGLVQAGGSLRLSCAASGSTFAANAMGWYRQAPGKERELVAAIDSSTGSTYYADSVKGRFTISRDIAKNNVFLQMNRLKPEDTAVYYCNKTSFLVKLDYWGQGTQVTVSS | low polyreactivity
8 | QVQLVESGGGLVQAGGSLRLSCAASGSTFAANAMGWYRQAPGKERELVAAITSSGGSTYYADSVKGRFTISRDNAKNTVYLQLNSLKPEVTAVYYCNKDIERYVRIYDSWGQGTQVTVSS | low polyreactivity
9 | QVQLVESGGGLVQAGGSLRLSCAASGSTFAFNAMGWYRQAPGKEREFVARITWTYGSTYYADSVKGRFTISRDNAKNTVYLQMNSLKPEDTAVYYCARDPTEQAIARWTYDYWGQGTQVTVSS | low polyreactivity
10 | QVQLVESGGGLVQAGGSLRLSCAASGSTFAFNAMGWYRQAPGKERELVAGITWSSGSTYYADSVKGRFTISRDNAKNTVYLQMNSLKPEDTAVYYCAVSGTRTIWGQGTQVTVSS | high polyreactivity
11 | QVQLVESGGGLVQAGGSLRLSCAASGSTFAFNTKGWYRQAPGKERELVAGISSNGGRTYYADSVKGRFTISRDNAKNTVYLQMNSLKPEDTAVYYCNALRRYVSVRPTKSDDWGQGTQVTVSS | high polyreactivity
12 | QVQLVESGGGLVQAGGSLRLSCAASGSTFAFYAMGWYRQAPGKERELVAAISRSGGRTYYADSVKGRFTISRDNAKNTVYLQMNSLKPEDTAVYYFAAPSSITTGPHREYDYWGQGTQVTVSS | high polyreactivity
13 | QVQLVESGGGLVQAGGSLRLSCAASGSTFAFYAMGWYRQAPGKERELVAAISSSGARTYYADSVKGRFTLSRDNAKNTVYLQMNSLKPEDTAVYYCAAAFYRLYITSYYYWGQGTQVTVSS | high polyreactivity
14 | QVQLVESGGGLVQAGGSLRLSCAASGSTFAGNAMGWYRQAPGKERELVAAITSGTGTHYADSVKGRFTISRDNAKNSVYLQMNSLKPEDTAVYYCAAEVWTWAGIWGYEYWGQGTQVTVSS | low polyreactivity
15 | QVQLVESGGGLVQAGGSLRLSCAASGSTFAGNGMGWYRQAPGKERELVAGIDVTGGSSYYADSVKGRFTISRDNAKNTVYLQMNSLKPEDTAVYYCNTVWYRGGIDYYWGQGTQVTVSS | low polyreactivity
16 | QVQLVESGGGLVQAGGSLRLSCAASGSTFAGYTLGWYRQAPGKERELVAAITSRGGRTYYADSVKGRFTISRDHAKNTVYLQMNSLKPEDTAVYYCAAVSRYYAALMYYWGQGTQVTVSS | high polyreactivity

Row | Sequence | polyreactivity (PSR sort gate)
17 | QVQLVESGGGLVQAGGSLRLSCAASGSTFAINAMGWYRQAPGKERELVAAISSSGSTNYADSVKGRFTISRDNAKNTVYLQMNSLIPEDTAVYYCAADRVWGTPQAYVPSQFDYWGQGTQVTVSS | low polyreactivity
18 | QVQLVESGGGLVQAGGSLRLSCAASGSTFAINAMGWYRQAPGKERELVAAITSGGGTNYADSVKGRFTISRDNAKNTVFLQMISLKPEDTAVYYCYGRVYWYYPMDYWGQGTQVTVSS | low polyreactivity
19 | QVQLVESGGGLVQAGGSLRLSCAASGSTFAKNAMGWYRQAPGKERELVAAITASGGSTYYADSVKGRFTISRDNAKNTVSLQMNSLKPEDTAVYYCAKSSYLTRGSRYDYWGQGTQVTVSS | low polyreactivity
20 | QVQLVESGGGLVQAGGSLRLSCAASGSTFAKYAMGWYRQAPGKERELVAAIRSGGSTNYADSVKGRFTISRDNAKITVYLQMYSLKPEDTAVYYCAAKRDVSRPVYFRNDYWGQGTQVTVSS | low polyreactivity
21 | QVQLVESGGGLVQAGGSLRLSCAASGSTFAKYAMGWYRQAPGKERELVASIRLSGGSTYYADSVKGRFTISRDNAKNPDYLQMNSLNPEDTAVYYFNKQFATFYYGFDYYYWGQGSQVTVSS | low polyreactivity
22 | QVQLVESGGGLVQAGGSLRLSCAASGSTFALYTMGWYRQAPGKERELVAAIRYGGGSTYYADSVKGRFTISRDNAKNTVYLQMNSLKPEDTAVYYCARDLYNLYSGSYYWGQGTQVTVSS | low polyreactivity
23 | QVQLVESGGGLVQAGGSLRLSCAASGSTFAPNALGWSRQAPGKERELVAAIRTNTVSTYYADSVKGRFTISRDNAKNTVYLQMNSLKPEDTEVYYCAAVFSGFYYAYDYWGQGTQVTVSS | high polyreactivity
24 | QVQLVESGGGLVQAGGSLRLSCAASGSTFAPNAMGWYRQAPGKEREFVASITWRGGSTYYADSVKGRFTISRDNAKNTVYLQMNSLKPEDTAVYYCANLKRGFYRLFGFRYDYWGQGTQVTVSS | low polyreactivity
25 | QVQLVESGGGLVQAGGSLRLSCAASGSTFAPNAMGWYRQAPGKERELVAAIRFDTGSTYYADSVKGRFTISRDNAKNTVYLQMNSLKPEDTAVYYCAAYNHYLSESDYWGQGTQVTVSS | low polyreactivity
26 | QVQLVESGGGLVQAGGSLRLSCAASGSTFAPYAMGWYRQAPGKERELVAAIRSSGGSTYYADSVKGRFTISRDNAKNTVYLQMNSLKPEDTAVYYCADDYYTSADYVDYYYWGQGTQVTVSS | low polyreactivity
27 | QVQLVESGGGLVQAGGSLRLSCAASGSTFAQNGLGWYRQAPGKERELVAAITSSGSTNYADSVKGRFTISRDNAKNTVYLQMNSLKPEDTAVYYCAKDVLAPYTRHDYWGQGTQVTVSS | low polyreactivity
28 | QVQLVESGGGLVQAGGSLRLSCAASGSTFASYAMGWYRQAPGKEREFVAAITRSGTSTYYADSVQGRFTISRDNAKNTVYLQMNSLKPEDTAVYYCNATRRTVGFGYWGQGTQVPVSS | high polyreactivity
29 | QVQLVESGGGLVQAGGSLRLSCAASGSTFATNTMGWYRQAPGKERELVARITSSDGSTTYADSVKGRFTISRDNAKNTDYLQMNSLKPEDTAVYYCAAAYGRRWGYDYWGQGTQVTVSS | low polyreactivity
30 | QVQLVESGGGLVQAGGSLRLSCAASGSTFATYAMVWYRQAPGKERELVAAITSGGSTYYADSVKGRFTISRDNAKNTVYLQMNSLKPEDTAVYYCAARSYGWRRATYYKREEYWGQGTQVTVSS | high polyreactivity
31 | QVQLVESGGGLVQAGGSLRLSCAASGSTFATYTMGWYRQAPGKERELVAAISVSGSRTYYADSVKGRFTISRDNAKNTVYLQMNSLKPEDTAVYYCNTLLRPRWSYDYWGQGTQVTVSS | high polyreactivity
32 | QVQLVESGGGLVQAGGSLRLSCAASGSTFAVNAMGWYRQAPGKERELVAAISDSDGSTFYADSVKGRFTISRDNAKNTVYLQMNSLKPEDTAVYYCAATVYRVFRYSYLYYYWGQGTQVTVSS | low polyreactivity
